Data from publication PMC2628428 (Molecular Microbiology, 2008).

Target: the molecule itself
Assay: cross-linking

B1: CetB (natural protein, UniProt Q0P967 1-165, looked up)
chain: MSREIFLQEDSLITSKTDLKGKIVYANDDFLKYAGYTMGEVLNKPHNIVRHEEMPKTVFKYLWDYMKEGKEIFAYVKNKTKDNNYYWVFANVTPSIDVNNNIIGYYSVRRMPNKSAISTIESLYSDLLRAEQQQGLNKGVEMLKNFCKDADKTYNELIFSLQEAK
stoichiometry N: 2
